22 sequences from the DeepSol protein solubility set can be followed below.

A short description of this series: soluble on expression in E. coli; label from the status in PepcDB or PDB records.
Regarding “METRRIRKVLVANRGEIAIRVFRACTELGIRTVAIYSKEDVGSYHRYKADEAYLVGEGKKPIEAYLDIEGIIEIAKAHDVDAIHPGYGFLSENIQFAKRCREEGIIFIGPNENHLDMFGDKVKARHAAVNAGIPVIPGSDGPVDGLEDVVAFAEAHGYPIIIKAALGGGGRGMRIVRSKSEVKEAFERAKSEAKAAFGSDEVYVEKLIENPKHIEVQILGDYEGNIVHLYERDCSVQRRHQKVVEVAPSVSLSDELRQRICEAAVQLMRSVGYVNAGTVEFLVSGDEFYFIEVNPRIQVEHTITEMITGIDIVQSQILIADGCSLHSHEVGIPKQEDIRINGYAIQSRVTTEDPLNNFMPDTGKIMAYRSGGGFGVRLDAGNGFQGAVITPYYDSLLVKLSTWALTFEQAARKMLRNLREFRIRGIKTNIPFLENVVQHPKFLSGEYDTSFIDTTPELFVF”, the “soluble on expression in E. coli” value is recorded as “soluble”.

On to “METYDLVIIGGGINGAGIARDAAGRGLSVLLCEKDDLASHTSSASTKLIHGGLRYLEYYEFGLVRKALQEREVLLKAAPHIIWPLRFVMPHARDQRPEWMIRAGLFLYDHLAKREVLPGSETVSFARHPSGAPLKDAFKRGFVYSDGWVQDARLVVLNAMDAAEHGAKIHVRTACVAARRDGEHWLATLEREDGSRFEVRARALVNAAGPWVQSLIEDKLAMPSSKSIRLVKGSHIVVKKIFDHPFAYIFQNPDKRIIFAIPYEKDFTLIGTTDVEYHGDPAQVAIDGDEINYLCEMSNRYFHSQITPADVLSTYSGVRPLLDDASDNASSVTRDYALEMDLKGAPLLSVFGGKITTFRKLAEEAVDKIAPLLGCGQATWTAGAPLPGGDMPGADFGRFLQGLRQRHPWLPEALAERWARAYGTRVGKLIGKADSLAGLGKEVLPGLYEAELAYLADAEWATRSEDILWRRSKLKLHLPANAAEVVDAWLAARAQPPREALSALEHHHHHH”, for which the “soluble on expression in E. coli” value is listed as “not soluble”.

As to “METYTVKLGSDKGLLVFEPAKLTIKPGDTVEFLNNKVPPHNVVFDAALNPAKSADLAKSLSHKQLLMSPGQSTSTTFPADAPAGEYTFYCEPHRGAGMVGKITVAG”, the “soluble on expression in E. coli” value is given as “soluble”.

On to “MEVCSTVTTKKLSSLAKLILFTIQKVSDASRHKLLTTLDPHLLAKRGKILRKSLNEAVSTSHSRITCRPSDHQDVRSSFISPVPLQLEYEFSCSSTPPRRSYATTVSKGRRSNGSHNRPLINKRQRQAYIRYNTLPKVRDSIWDRHVAAAVFPDVASSTGTMESCHVDRAAEEFIQSFYRQLRLQKWMMAQEV”, for which the “soluble on expression in E. coli” value is on record as “not soluble”.

“MEVKEMFSLGGGLGRSKVDESKVWDVIIIGAGPAGYTAAIYAARFGLDTIIITKDLGGNMAITDLIENYPGFPEGISGSELSKKMYDQVKKYGVEVIIDEVIRIDPAECAYYEGPCNFVVKTANGKEYKAKTIIIAVGAEPRKLNVPGEKEFTGRGVSYCATCDGPLFVGKEVIVVGGGNTALQEALYLHSIGVKVTLVHRRDKFRADKILQDRFKQAGIPAILNTVVTEIKGTNKVESVVLKNVKTGETVEKKVDGVFIFIGYEPKTDFVKHLGITDEYGYIPVDMYMRTKVPGIFAAGDITNVFKQIAVAVGQGAIAANSAKEFIESWNGKTIE”: the “soluble on expression in E. coli” value is reported as “soluble”.

Take “MEVVEAAAAQLETLKFNGTDFGVGEGPAAPSPGSAPVPGTQPPLQSFEGSPDAGQTVEVKPAGEQPLQPVLNAVAAGTPAPQPQPPAESPACGDCVTSPGAAEPARAPDSLETSDSDSDSDSETDSDSSSSSSSSSSSSSSSSSSCISLPPVLSDGDDDLQVEKENKNFPLKTKDELLLNELPSVEELTIILPEDIELKPLGMVSSIIEQLVIIESMTNLPPVNEETVIFKSDRQAAGKIFEIFGPVAHPFYVLRFNSSDHIESKGIKIKETMYFAPSMKDFTQYIFTEKLKQDKGSDASWKNDQEPPPEALDFSDDEKEKEAKQRKKSQIQGRKKLKSEFNEPGEDFTEVHQNWNAHSSASEHAKGYRNREFTRGFSRARYPRSCHGRPPPQHFYNSEHMVSQETSGFPSQRQNNPIMPQYPFPLPVFDMHNFPLRPPPPPPPPPVNMGWATPNMAAHPLLNLPYSLPPPPPPPPLPPPPSSGDSNSHFGPYY”: the “soluble on expression in E. coli” value was “soluble”.

For “MEVVRIPEFKEKTAPGAYYQQPAIDGSRPGRFYANLFDIKATPKYGMRTLAYHEGIPGHHFQVAVAMELEGQPLIRKMAPFTAYIEGWALYSERVAWELGFQQDPFDNIGRLQAELFRAVRLVVDTGIHHSRWTREQAIDYMKKNTGMSDRDVTAEIERYIVMPGQATAYKVGMMKILELREKAKQALGDKFDLRDFHDVVLKNGAVPLDILEKLVDRYIADKRSQA”, the “soluble on expression in E. coli” value is given as “not soluble”.

As to “MEYGAICTPFIFVVYAKSKYLCVLISNEMGKNKLEKFADMASYPHVFEYPYSAVDNVPFDMKGKWHQEFFGNDHPIVLELGCGRGEYTVGLGRMFPDKNFIAVDIKGSRMWTGATESLQAGMKNVAFLRTNIEIIERFFAAGEVSEIWLTFSDPQMKKATKRLTSTYFMERYRKFLKPDGIIHLKTDSNFMFTYTKYMIEANQLPVEFITEDLYHSDLVDDILSIKTYYEQQWLDRGLNIKYIKFRLPQEGVLQEPDVEIELDPYRSYNRSKRSGLQTSK”, the “soluble on expression in E. coli” value is listed as “not soluble”.

Regarding “MEYHLRTKLNGNIAMTSCFHENSFLQCDRSLYKFIWVRHGALDVEVDHVVMHLEKEEMISLTPLHHVQIRGVDGEYLTFLFNSNFYCIYGHDSEVSCNGFLFNGSSRVMRLKLSPSQSARLDSIVDIFRGECGIQDNLQEEMLRIILKRFIITCTRIAREKFDVDPGRENMFDVIRQFYVLVDSHFKEKKQVQDYADMLCRSPKTISNLFSLYGLSSPLRVIHERVDAEAKRLLLYTGKSAKEISEILGFEDLATFSRFFKKMNKESLSEYRKREKRE”, the “soluble on expression in E. coli” value was “not soluble”.

For the sequence “MEYKSSPKRPYYLRGFYDWLVDNSFTPYLVVDATYLGVNVPVEYVKDGQIVLNLSASATGNLQLTNDFIQFNQRFKGVSRELYIPMGAALAIYARENGDGMMFEPEEIYDELNIEPDTEQPTGFYEAVD”, the “soluble on expression in E. coli” value is “soluble”.

Regarding “MEYLFLRRKKTSSTSVRQKTLLYRAAGREWTARFSSLSDVRPADSLIYKGILYQLEIRRAFLDSSLSLKKLSMMLETNQTYLSNAVNRYFGCHLKELLNRYRVEYAKELLRNGGCPLGEVPSRSGFGSKSPFYLAFVRQTGMTPKRYAARERNLVNLEIENEVLL”, the “soluble on expression in E. coli” value was “not soluble”.

Take “MEYRSLTLDDFLSRFQLLRPQINRETLNHRQAAVLIPIVRRPQPGLLLTQRSIHLRKHAGQVAFPGGAVDDTDASAIAAALREAEEEVAIPPSAVEVIGVLPPVDSVTGYQVTPVVGIIPPDLPYRASEDEVSAVFEMPLAQALHLGRYHPLDIYRRGDSHRVWLSWYEQYFVWGMTAGIIRELALQIGVKPMGHHHHHHSH”: the “soluble on expression in E. coli” value is listed as “not soluble”.

In the case of “MFAIQPGLAEGGQFLGDPPPGLCQPELQPDSNSNFMASAKDANENWHGMPGRVEPILRRSSSESPSDNQAFQAPGSPEEGVRSPPEGAEIPGAEPEKMGGAGTVCSPLEDNGYASSSLSIDSRSSSPEPACGTPRGPGPPDPLLPSVAQAVQHLQVQERYKEQEKEKHHVHLVMYRRLALLQWIRGLQHQLIDQQARLQESFDTILDNRKELIRCLQQRAAPSRPQDQA”, the “soluble on expression in E. coli” value is “soluble”.

Turning to “MFCTFFEKHHRKWDILLEKSTGVMEAMKVTSEEKEQLSTAIDRMNEGLDAFIQLYNESEIDEPLIQLDDDTAELMKQARDMYGQEKLNEKLNTIIKQILSISVSEEGEKE”, the “soluble on expression in E. coli” value is “soluble”.

For “MFCVRCGSSDSELYEGLCRDCFLEDYSILRIPDRIEVRVCSHCRAKFISGQWLDEGLPDEEIVYRALEDSISWDEPVENPEIELEIMQERGTIYRCLVEVDAEVLGKRLSQEYEVEVRITNTVCPTCSKQSSGYYEAVIQLRADGRELAETEIETADRVVQRTLLKLSRRDKLAYLPQRVEVKEGVDYYIGSHKSARKVVDAIREKLGGITMESPRLMGQDKSTGKGLYRTWISLRLANFRVGDFLSHHNRILAVIDLRKKGVSVRDLETREVKNILWGEYEDMDVVGRADDVKTTTVTSRSPGMIQILHPETFEPVDLEADSYTSTLDIGEQVPVIEIDKRLYIIEDEAEELEHHHHHH”, the “soluble on expression in E. coli” value is on record as “soluble”.

As to “MFELDLRSRQPIYEQLIDKMKEMIVRELWQPHDQLPSVRTMAKQLMINPNTIQKAYRELERDGWIYSIPGKGSFVAPRSKEPNIEAIAAVREQFVRLVKEARFLGVTNEQLWQWIREGEERGGES”, the “soluble on expression in E. coli” value is recorded as “not soluble”.

Consider “MFFCTILSFFDFGRYFMEKNQYEIYHENKKHTPNDFPYNTYLCSIPLDFKSVNLHWHNEVELIVIKKGQGLVNVNLVTYTVNAGDVVFVFPGQLHSISQKDYSIMEYENILFKSSLLKSSGYDLCNDKFIQPLLSGNLNIYPVINSNFDFHDSLYSLINEIDKLCDKRPYAYQLAVKSYLFQIFYLLISNCGLNQIKPISKKALEK”, for which the “soluble on expression in E. coli” value is recorded as “not soluble”.

For the sequence “MFFSHETILLICYNMLTLSKKISRIASEMIMKTKLIVVAGPTAVGKTALGIELAERFNGEIISGDSQQVYRQLNIGTAKATPEEQAAAVHHLIDVRDVDESYSAYDFVTEAQAAITDIVSRGKLPIIVGGTGLYLQSLLEGYHLGGKVDQNQVLAYRSELEQLSDQQLFEKIDSLGIEIKEINRRRAIRALELYRFSDNLENTETCYEPFIIGLDDERSLIYDRINTRVDKMVELGLLEEAKWLYDNFPEAQSARGIGYKELFPYFSGEQTLDEALEKLKQNTRRFAKRQLTWFRNRMTVSFYQISSPEYPENVIQDLAIFLNEEEGEKLEHHHHHH”, the “soluble on expression in E. coli” value is “soluble”.

Consider “MFIAGYIEKPERGKDIILTEKGRISNEKFFPTLEEKRLIDQYWKNKSELRKARKKANSIIDDSTSTKAVEIDENSGDSDWKTELIDQLKKFSPGKFESFSRLLISKMGVRIDNQRGIIRSGDHSIDGFGYFQSDEFRTSRVAIQAKRFTNGSVGEPEIDKFKGVMDSFNAEYGIFITTSYFTDQAKEKAVVGNNSVTLIDGIKLASLVQKYQLRV”, for which the “soluble on expression in E. coli” value is “not soluble”.

Take “MFILHRSMLPCGANQMDLIQENGQPRYGRFSQLPTAIGLDRYIYKSPYGKIEKGWRKKLKYKKFKFCSIQHQHYSIGLAIADIGWAGHGFFYVYDHAKHQVQEWNAIHAFARKTCVDEQPLFNQSYFYKSPFELDIQHANGVRYLRVTKYGEILLSARIFCAGTEPLSLCSPNGINGWTYTQKKTTLGVEGYFTTKQGEMIEFNETSLASLDDTCGFLRPETAWFWLSSSFWTDHGDRIGINLASGVNESFGNENCIWINGVLHSIADVLFERQDKNHWVIRSLDHKLELHVETGWRRYESINLRMVGSQFSQWQAKLTGKILLDENKTVVLNQEYALLEQHYAKW”: the “soluble on expression in E. coli” value is reported as “not soluble”.

“MFKKFTREDVHSRSKVKSSIQRTLKAKLVKQYPKIEDVIDELIPKKSQIELIKCEDKIQLYSVDGEVLFFQKFDELIPSLKLVHKFPEAYPTVQVDRGAIKFVLSGANIMCPGLTSAGADLPPAPGYEKGTIVVINAENKENALAIGELMMGTEEIKSVNKGHSIELIHHLGDPLWNFSVE”: the “soluble on expression in E. coli” value was “not soluble”.

As for “MFKYSKDGVSVLTILDTRRAKINGLFPVKVQVVFRRKQKYYSTGKELSKEDWDRLLKAKSQLLMEVRTDIESSFSIIKQQVSELIQKGEFSFEILSIRLGRHTKEINLRTAFELKMKELEDNEQASTYLNYRSALKSLECFGGTNIPLDRITVEWLKHCERFWISNGKSYSSVSIYFRTLKCILNRAVRDGILKESSFPFGKNKYEIPEGHGRKLALTLPEIKRVMSFQDSTNELEEFRDLWFFSYLCNGINFMDLLFLQYSNIVDGEICFIRSKTSRTTKHSKEIRATITPEMWDIIHKWGNPNISPQTYIFKYAKGNEDAFEKIKLVRRIVTKCNRKLKKIAQGTGIAQLTTYTARHSFATVLKRGGAKTSYISESLGHSNLTVTENYLACFEKEERIRNARLLTNFDNKM”, the “soluble on expression in E. coli” value is given as “not soluble”.
